Reference: article PMC7331980, “Dynamic rotation of the protruding domain enhances the infectivity of norovirus” (PLoS Pathogens, 2020)

Tests used:
[1] = biological target: the molecule itself; assay: cryo-EM structure; single-particle cryo-EM at 200 kV (JEM2200FS); purified particles suspended in DMEM; icosahedral reconstruction
[2] = biological target: the molecule itself; assay: cryo-EM structure; single-particle analysis (RELION) of MNoV-1 VLPs stored in DMEM; three types of particles reconstructed

| Protein | binding result [1] | binding result [2] |
| --- | --- | --- |
| VP1 capsid protein of murine norovirus type 1 (MNoV-1), as the capsid of infectious particles (natural protein, also called MNoV-1 infectious particles; MNoV-1 particles; copies: 180) MRMSDGAAPKANGSEASGQDLVPAAVEQAVPIQPVAGAALAAPAAGQINQIDPWIFQNFVQCPLGEFSISPRNTPGEILFDLALGPGLNPYLAHLSAMYTGWVGNMEVQLVLAGNAFTAGKVVVALVPPYFPKGSLTTAQITCFPHVMCDVRTLEPIQLPLLDVRRVLWHATQDQEESMRLVCMLYTPLRTNSPGDESFVVSGRLLSKPAADFNFVYLTPPIERTIYRMVDLPVIQPRLCTHARWPAPVYGLLVDPSLPSNPQWQNGRVHVDGTLLGTTPISGSWVSCFAAEAAYKFQSGTGEVATFTLIEQDGSAYVPGDRAAPLGYPDFSGQLEIEVQTETTKTGDKLKVTTFEMILGPTTNADQAPYQGRVFASVTAAASLDLVDGRVRAVPRSIYGFQDTIPEYNDGLLVPLAPPIGPFLPGEVLLRFRTYMRQIDTADAAAEAIDCALPQEFVSWFASNAFTVQSEALLLRYRNTLTGQLLFECKLYNEGYIALSYSGSGPLTFPTDGIFEVVSWVPRLYQLASVGSLATGRMLKQ | binds | – |
| VP1 capsid protein of murine norovirus type 1 (MNoV-1), as virus-like particles (natural protein, UniProt Q80J94 1-541, looked up, Major capsid protein VP1 of murine norovirus type 1 (MNoV-1); Formed three types of particles: one large (T = 4) and two small (T = 3, resting and rising P domain conformations), so no single copy number; also called MNoV-1 VLPs; VLPs of MNoV-1; source: baculovirus expression system, purified (CsCl equilibrium ultracentrifugation), stored in DMEM) MRMSDGAAPKANGSEASGQDLVPAAVEQAVPIQPVAGAALAAPAAGQINQIDPWIFQNFVQCPLGEFSISPRNTPGEILFDLALGPGLNPYLAHLSAMYTGWVGNMEVQLVLAGNAFTAGKVVVALVPPYFPKGSLTTAQITCFPHVMCDVRTLEPIQLPLLDVRRVLWHATQDQEESMRLVCMLYTPLRTNSPGDESFVVSGRLLSKPAADFNFVYLTPPIERTIYRMVDLPVIQPRLCTHARWPAPVYGLLVDPSLPSNPQWQNGRVHVDGTLLGTTPISGSWVSCFAAEAAYKFQSGTGEVATFTLIEQDGSAYVPGDRAAPLGYPDFSGQLEIEVQTETTKTGDKLKVTTFEMILGPTTNADQAPYQGRVFASVTAAASLDLVDGRVRAVPRSIYGFQDTIPEYNDGLLVPLAPPIGPFLPGEVLLRFRTYMRQIDTADAAAEAIDCALPQEFVSWFASNAFTVQSEALLLRYRNTLTGQLLFECKLYNEGYIALSYSGSGPLTFPTDGIFEVVSWVPRLYQLASVGSLATGRMLKQ | – | binds |
